Assay results taken from patent US20240158500A1 (UCL BUSINESS, published 2024).
Positions count from the first letter of the chain named.

T1: purified CD160 (SPR analyte) (UniProt O95971 25-159, limits assumed)
T1 sequence (looked up): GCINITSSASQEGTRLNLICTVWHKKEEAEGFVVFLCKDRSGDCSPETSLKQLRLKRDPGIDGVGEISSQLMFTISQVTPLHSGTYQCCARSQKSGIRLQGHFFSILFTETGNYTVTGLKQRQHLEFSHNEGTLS

B1: anti-CD160 scFv clone 10 (scFv)
scFv: EVQLVESGPGLVQPSETLSLTCTVSGFSLTSYGVNWFRQPPGKGLEWMGTIWNDGGTDYNSALKSRLSISRDTSKSQVFLKMNSLQTEDTAIYFCARGFEYWGQGTLVTVSSGGGGSGGGGSGGGGSDIVMTQSPKSMSISVGDRVTMNCKASQNVGKNIAWYQQKPGQSPKLLIYYASNRYTGVPDRFTGSGSGTDFTLTITNMQTEDLAVYYCLQYNYNPWTFGGGTKLELKR
notes: Rat scFv, VH-linker-VL
B2: anti-CD160 scFv clone 8 (PB9) (scFv)
scFv: QVNLQESGPGLVQPSETLSLTCTVSGFSLTNYGINWFRQPPGKGLEWMGTIWNDGGTDYNSALKSRLSISRDTSKSQVFLKMNSLQTEDTAIYFCARGMDAWGQGASVTVSSGGGGSGGGGSGGGGSDIQMTQSPASLSASLGETVSIECLASEDIYNNLAWYQQKPGKSPQLLIYYANSLQDGVPSRFSGSGSGTQYSLKINSLQSEDVATYFCQQYNNYPFTFGSGTKLELKR
notes: Rat scFv, VH-linker-VL
B3: anti-CD160 scFv clone 2 (C25) (scFv)
scFv: EVQLVESGGDLVQPGRSLKLSCAASGFTFSNYGMAWVRQAPTKGLEWVASVSNGGGNTYYRDSVKGRFTISRDNAKNTQYLQMDSLRSEDTATYYCVTHNYESTVFDYWGQGAMVTVSSGGGGSGGGGSGGGGSEIVLTQSPTTMTASPGEKVTITCRASSSVSYMHWYQQKPGASPKPWIYETSKLASGVPDRFSGSGSGTSYSLTINNMEAEDAATYYCQQWNYPSMYTFGPGTKLELKR
B4: anti-CD160 scFv clone 12 (scFv)
scFv: EVQLVESGGGFVQPGGSLKLSCAASGFTFSNYGMAWVRQAPKKGLEWVASISSGRGNTYYRDSVKGRFTISRDNAKNTQYLQMDSLRSEDTATYYCVTHNYESTIFDYWGQGVMVTVSSGGGGSGGGGSGGGGSEIVLTQSPTTMTASPGEKVTIICRASSSVSYMHWYQQKPGASPKPWIYETSKLASGVPDRFSGSGSGTSYSLTFNNMEAEDAATYYCQQWNYPSMYTFGAGTKLELKR
notes: Rat scFv, VH-linker-VL
B5: anti-CD160 scFv clone 19 (scFv)
scFv: B3 scFv with Q3K, D10G, S50T, V51I, T98A, T144P, P234A
notes: Rat scFv, VH-linker-VL
B6: anti-CD160 scFv clone 1 (C123) (scFv)
scFv: EVKLVESGGGLVQPGRSLKLSCAASGFIFSNYAMAWVRQAPTKGLEWVASVNSGGANTYYRDSVKGRFTISRDNAKNTQYLHIDSLRSEDTATYYCATHNYESTVFDYWGQGAMVTVSSGGGGSGGGGSSGGGGSEIVLTQSPTTMTASPGEKVTITCRASSSVSYMHWYQQKPGASPKPWIYETSKLASGVPDRFSGSGSGTSYSLTINNMEAEDAATYYCQQWNYPSMYTFGAGTKLELKR
notes: Rat scFv, VH-linker-VL
B7: anti-CD160 scFv clone 4 (scFv)
scFv: EVKLVESGGGLVQPGRPLKLSCAASGFTFSNYGMAWVRQAPKKGLEWVATISTGDDNTYYRDSVKGRFTISRDNAKNTQYLQMDSLRSEDTATYYCATHNYESTIFDYWGQGVMVTVSSGGGGSGGGGSGGGGSDIAITQSPASMTASPGERVTITCRASSSVSYMHWYQQKPGASPKPWIYETSKLASGVPDRFSGSGSGTSYSLTINNMEAEDAATYYCQQWNYPSMYTFGAGTKLELKR
B8: anti-CD160 scFv clone 5 (C10) (scFv)
scFv: QVQLKESGPGLVQPSETLSLTCTVSGFSLTNYGINWFRQPPGKGLEWMGTIWNDGGTDYNSALKSRLTISRDTSKSQVFLKMNSLQTEDTAIYFCARGMEAWGQGASVTVSSGGGGSGGGGSGGGGSDIQLTQSPSLLSASVGDRVTLSCKGSQNINNYLAWYQQKLGEAPKLLIYNTNSLQTGIPSRFSGSGSGTDYTLTISSLQPEDFATYFCLQHNSGYTFGAGTKLEIKR
notes: Rat scFv, VH-linker-VL; also called 010
B9: anti-CD160 scFv clone 11 (PB10) (scFv)
scFv: EVQLVESGGGLVQPGRSLKLSCAASGFTFSNYGMAWVRQAPTKGLEWVASINTSGGSTYYRDSVKGRFTISRDNAKSTLYLQMDSLRSEDTATYYCATIYYHDGSYYYAGWFAYWGQGTLVTVSSGGGGSGGGGSGGGGSDIVLTQSPALAVSPGERVSISCRASESVSTLMHWYQQKLGQQPKLLIYGASNLESGVPARFSGSGSGTDFTLNIDPVEADDIATYFCQQSWNGPWTFGGGTKLELKR
notes: Rat scFv, VH-linker-VL
B10: anti-CD160 scFv clone 16 (scFv)
scFv: QVNLQESGPGLVRPSETLSLTCTVSGFSLISYGVNWFRQPPGKGLEWMGTIWNDGGTDYNSALKSRLSISRDTSKSQVFLKMNSLQTEDTAIYFCARGFEHWGQGVMVTVSSGGGGSGGGGSGGGGSDIQMTQSPASLSASLGETVSIECLTSEDISNDSAWYQQKSGKSPQLLIYAASRLQDGVPSRFSGSGSGTRYSLKISGMQPEDEADYFCQQSYKYPLTFGSGTKLEIKR
notes: Rat scFv, VH-linker-VL
B11: anti-CD160 scFv clone 6 (SC14) (scFv)
scFv: EVQLVESGGGFVQPGRSLKLSCAASGFTFSNYAMAWVRQAPTKGLEWVASINSGGGDSYYRDSVKGRFTISRDNAKNTQYLQMDSLRSEDTATYYCATHNYGSTIFDYWGQGAMVTVSSGGGGSGGGGSGGGGSEIILTQSPTTMTASPGEKVTITCRASSSVSYMHWYQQKPGASPKPWIYETSKLASGVPDRFSGSGSGTSYSLTINNMEAEDAATYYCQQWNYPSMYTFGAGTKLELKR
notes: Rat scFv, VH-linker-VL
B12: anti-CD160 scFv clone 9 (PB6) (scFv)
scFv: EVQLVESGGGLVQPGRSLKLSCAASGFTFSNYAMAWVRQAPTKGLEWVASISSGGGDTYYRDSVKGRFTISRDNSKNTQYLQMDSLRSEDTATYYCATHNYESTVLITWGQGASVTVSSGGGGSGGGGSGGGGSEIVLTQSPTTTAASPGERVTITCRASSSVSYMHWYQQKPGASPKPWIYETSKLASGVPDRFSGSGSGTSYSLTINNMEAEDAATYYCQQWNYPSMYTFGAGTKLEIKR
notes: Rat scFv, VH-linker-VL
B13: anti-CD160 scFv clone 3 (C83) (scFv)
scFv: QVNLQESGPGLVQPSETLSLTCTVSGFSLTSYGVYWVRQPPGKGLEWMGRIWNDGGTDYNPALKSRLSISRDTSKSQVFLKLNSLQTEDTAIYFCARGWTHWGQGTLVTVSSGGGGSGGGGSGGGGSDIQMTQSPASLSASLGETVSIECLASEDIYNNLAWYQQKPGKSPQLLIYYASSLQDGVPSRFSGSGSGTQYSLKINSLESEDVATYFCLQDSEYPPTFGGGTKLELKR
B14: anti-CD160 scFv clone 7 (scFv)
scFv: EVQLVESGPGLVQPSETLSLTCTVSGFSLTSHGVNWFRQPPGKGLEWMGTIWNDGGTDYNSALKSRLSIIRDTSKGQVFLKMNSLQTEDTAIYFCARGLAYWGQGTLVTVSSGGGGSGGGGSGGGGSDIQMTQSPASLSASLGETVNIECLASEDIYSDLAWYQQKPGKSPQLLIYNANSLQNGVPSRFSGSGSGTQYSLKINSLQSEDVATYFCQQYNNYPWTFGGGTKLEIKR
notes: Rat scFv, VH-linker-VL

Experiments:
[1] = biological target: commercially sourced CD160 protein (UniProt O95971); assay: ELISA, coating antigen CD160-His (Commercial CD160), BY55-huIgG1 titrated, OD 450nm. The table under panel C repeats the value
[2] = biological target: CD160 fused with Twin streptag (panning reagent from transfected 293T supernatant, unpurified or purified via its Fc region) (human) (UniProt O95971); assay: ELISA, coating antigen CD160-Fc purified (Purified CD160 mIgG2a Fc), BY55-huIgG1 titrated, OD 450nm. The table under panel C repeats the value. The curve has no upper plateau in the range shown
[3] = biological target: CD160 fused with Twin streptag (panning reagent from transfected 293T supernatant, unpurified or purified via its Fc region) (human) (UniProt O95971); assay: ELISA, coating antigen HEK supernatant (unpurified CD160 mIgG2a Fc), BY55-huIgG1 titrated, OD 450nm. The table under panel C repeats the value. The curve has no upper plateau in the range shown
[4] = biological target: human CD160, GPI-anchored isoform, on engineered cells (SupT1, 293T) (human) (UniProt O95971); assay: flow cytometry, 293T cells transiently transfected with pVAC2 human CD160; the same quadrant on non-transfected 293T cells prints 1.53
[5] = biological target: human CD160, GPI-anchored isoform, on engineered cells (SupT1, 293T) (human) (UniProt O95971); assay: flow cytometry, 293T cells transiently transfected with pVAC2 human CD160; the same quadrant on non-transfected 293T cells prints 0.071
[6] = biological target: human CD160, GPI-anchored isoform, on engineered cells (SupT1, 293T) (human) (UniProt O95971); assay: flow cytometry, BY55-IgM-PE. The thick histogram (SupT1 CD160) peaks at about 10^4, the thin one (SupT1 negative) below 10^2 [Continued) B]
[7] = biological target: T1, purified CD160 (SPR analyte); assay: SPR, Biacore T200, scFv captured on CM5 chip, CD160 as analyte, single-cycle kinetics, 1:1 Langmuir fit
Procedure: FIG. 8—Characterization of the monoclonal scFv identified in the biopanning. [A] […] We identified five different CDR3H in which three were represented in multiple clones and […]. [B] Flow cytometry analysis of the five selected CDR3 expressed secreted as chimeric scFv fused with mIgG2aFc. […] [C] The affinity of these five scFv was determined using Biacore T200 technology. Individual scFvs were captured on a CM5 chip and CD160 was injected as analyte at 5 different concentration (3.70 nM, 11.11 nM, 33.33, nM, 100 nM and 300 nM) in a single-cycle kinetic study. The double-reference subtracted sensorgrams fitted with the 1:1 Langmuir binding model; kinetic and model fitting data are reported in the table.
The kinetic profile of the scFvs was studied by SPR using purified CD160 as the analyte and a range of high affinity scFvs were found (FIG. 8).

Molecule | Kd [7] [nM] | koff [7] [s⁻¹] | kon [7] [M⁻¹ s⁻¹] | also measured
BY55-huIgG1 (antibody) | – | – | – | EC50 [1]: 0.14 µg/mL; EC50 [2]: 0.21 µg/mL; EC50 [3]: 0.06 µg/mL
commercial anti-CD160 antibody BY55 | – | – | – | Q1 (anti-CD160-PE positive, blank channel negative), share of cells [4]: 66%; Q2 (anti-CD160-PE positive, blank channel positive), share of cells [5]: 14%; CD160+ (gate, share of cells) [6]: 92.9
B1 | 8.91 | 0.00245 | 275000 | –
B2 | 4.92 | 0.00804 | 1.63e+06 | –
B3 | 0.262 | 6.51e-05 | 249000 | –
B4 | 0.000853 | 1.75e-07 | 205000 | –
B5 | 5.31 | 0.000833 | 157000 | –
B6 | 0.00154 | 2.76e-07 | 179000 | –
B7 | 0.12 | 3.9e-05 | 325000 | –
B8 | 18.4 | 0.0305 | 1.65e+06 | –
B9 | 9.15 | 0.00125 | 137000 | –
B10 | 8.72 | 0.00243 | 279000 | –
B11 | 0.541 | 0.000143 | 264000 | –
B12 | 5.18 | 0.00211 | 408000 | –
B13 | 1.5e-05 | 1.69e-08 | 1.13e+06 | –
B14 | 0.33 | 0.00035 | 1.06e+06 | –
